From patent US20140157444A1

Experiments:
[1] = target: Myc-tagged estrogen receptor beta (UniProt O08537); test: cell-based or functional assay
GFP-ERα (human) = GFP-ERα (human) (UniProt P03372); test: cell-based or functional assay
GFP-ERα (human), sequence (P03372 whole entry): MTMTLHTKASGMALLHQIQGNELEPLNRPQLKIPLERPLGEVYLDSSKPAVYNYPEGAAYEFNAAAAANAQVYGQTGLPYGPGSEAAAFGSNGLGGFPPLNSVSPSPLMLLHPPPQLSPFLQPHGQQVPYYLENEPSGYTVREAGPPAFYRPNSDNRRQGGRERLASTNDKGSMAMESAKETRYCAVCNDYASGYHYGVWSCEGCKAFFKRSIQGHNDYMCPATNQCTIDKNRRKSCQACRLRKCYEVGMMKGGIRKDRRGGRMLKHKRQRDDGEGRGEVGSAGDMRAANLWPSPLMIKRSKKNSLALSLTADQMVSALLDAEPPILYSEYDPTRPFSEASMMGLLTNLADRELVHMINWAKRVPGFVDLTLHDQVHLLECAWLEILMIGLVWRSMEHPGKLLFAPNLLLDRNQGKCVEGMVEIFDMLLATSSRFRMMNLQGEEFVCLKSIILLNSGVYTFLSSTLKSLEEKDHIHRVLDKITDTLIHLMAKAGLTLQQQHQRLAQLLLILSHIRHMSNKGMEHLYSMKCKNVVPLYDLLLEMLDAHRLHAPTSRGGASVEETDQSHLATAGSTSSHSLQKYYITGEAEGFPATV

Myc-tagged estrogen receptor beta, sequence (O08537 whole entry): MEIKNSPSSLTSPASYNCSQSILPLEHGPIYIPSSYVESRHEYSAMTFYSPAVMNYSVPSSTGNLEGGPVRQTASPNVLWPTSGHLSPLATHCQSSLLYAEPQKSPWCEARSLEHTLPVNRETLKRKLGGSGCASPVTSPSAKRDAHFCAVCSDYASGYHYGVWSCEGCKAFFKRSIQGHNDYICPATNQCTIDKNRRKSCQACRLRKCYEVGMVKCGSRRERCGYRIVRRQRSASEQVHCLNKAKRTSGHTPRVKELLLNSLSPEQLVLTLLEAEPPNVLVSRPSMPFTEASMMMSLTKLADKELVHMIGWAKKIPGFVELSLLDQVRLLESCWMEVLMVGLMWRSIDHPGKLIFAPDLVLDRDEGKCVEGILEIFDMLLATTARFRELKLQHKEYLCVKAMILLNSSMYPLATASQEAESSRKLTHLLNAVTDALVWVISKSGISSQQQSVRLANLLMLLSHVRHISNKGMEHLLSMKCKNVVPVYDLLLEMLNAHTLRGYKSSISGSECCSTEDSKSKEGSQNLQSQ

Substance: WDR13 (overexpressed in the luciferase assay, construct not stated) (from UniProt Q91V09 1-485)
- ERE-driven luciferase activity (ERE-TATA-LUC reporter in HEK 293 cells) (fold reduction) [1]: 2
- ERE-driven luciferase activity (ERE-TATA-LUC reporter in HEK 293 cells) (fold reduction) (GFP-ERα (human)): 2
